Measured values taken from paper PMC4882453, “Monoacylglycerol Lipases Act as Evolutionarily Conserved Regulators of Non-oxidative Ethanol Metabolism” (The Journal of Biological Chemistry, 2016).

Substrate: CCCCCCCCCCCCCCCC(=O)OCC
Assay: release of fatty acid, substrate saturation, nonlinear regression
Type: biochemical, Saccharomyces cerevisiae
Details: CHAPS-emulsified substrate, Bistris propane, pH 7, 1 mM EDTA, 37 °C, 30 min

B1: His6-tagged Yju3p (Saccharomyces cerevisiae S288C) (protein)
chain: MAPYPYKVQTTVPELQYENFDGAKFGYMFWPVQNGTNEVRGRVLLIHGFGEYTKIQFRLMDHLSLNGYESFTFDQRGAGVTSPGRSKGVTDEYHVFNDLEHFVEKNLSECKAKGIPLFMWGHSMGGGICLNYACQGKHKNEISGYIGSGPLIILHPHTMYNKPTQIIAPLLAKFLPRVRIDTGLDLKGITSDKAYRAFLGSDPMSVPLYGSFRQIHDFMQRGAKLYKNENNYIQKNFAKDKPVIIMHGQDDTINDPKGSEKFIQDCPSADKELKLYPGARHSIFSLETDKVFNTVFNDMKQWLDKHTTTEAKP
notes: expression construct described previously (YJU3 for the GFP fusions was cloned from BY4742 genomic DNA)
- Km: 780 µM
